Experimental data published in patent publication US20260152567A1 (CSPC MEGALITH BIOPHARMACEUTICAL, published 2026).

Assays:
[1] = biological target: T1, cynomolgus monkey full-length CD73 on CHO-K1 cells (cynomolgus monkey, UniProt A0A2K5V5U7 27-549); test: flow cytometry on CHO-K1 cells expressing monkey full-length CD73
T1 construct: whole, on cells; also called monkey CD73 protein expressed on cells; cynomolgus monkey CD73 on cell surface
T1 sequence: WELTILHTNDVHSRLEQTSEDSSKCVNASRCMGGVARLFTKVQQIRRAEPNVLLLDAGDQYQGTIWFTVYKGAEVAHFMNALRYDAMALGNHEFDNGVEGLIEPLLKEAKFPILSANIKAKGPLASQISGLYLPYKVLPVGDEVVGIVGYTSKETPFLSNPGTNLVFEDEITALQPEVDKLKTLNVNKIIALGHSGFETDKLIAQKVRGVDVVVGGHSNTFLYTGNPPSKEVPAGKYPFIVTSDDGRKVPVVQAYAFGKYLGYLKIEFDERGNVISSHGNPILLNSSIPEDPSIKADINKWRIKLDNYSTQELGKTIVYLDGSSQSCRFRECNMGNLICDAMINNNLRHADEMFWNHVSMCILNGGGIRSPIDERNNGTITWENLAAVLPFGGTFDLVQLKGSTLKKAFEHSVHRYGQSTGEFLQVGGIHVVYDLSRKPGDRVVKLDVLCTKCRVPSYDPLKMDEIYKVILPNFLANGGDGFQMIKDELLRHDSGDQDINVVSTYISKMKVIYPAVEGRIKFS
Protocol: In order to characterize the ability of the humanized antibodies prepared in the present application to recognize the cynomolgus monkey CD73 molecule on the cell membrane, CHO-K1 cells capable of stably expressing monkey full-length CD73 were constructed. The cells were seeded in a 96-well plate at a density of 2×10⁶ cells/mL, with 100 μL per well. The plate was washed three times with a PBS buffer, and the supernatant was discarded. The antibodies diluted in a gradient with a PBS buffer were added, and the mixture was incubated at 4° C. for 1 h. The cells were washed 3 times with a PBS buffer, followed by labeling with Alexa Fluor 488-labeled goat anti-human IgG antibody at 4° C. in the dark for 50 min. The cells were then washed 3 times with a PBS buffer, and the fluorescence intensity of the cells was read by a flow cytometer.
As shown in the results in FIG. 5 and Table 10, the prepared humanized antibodies could bind to the monkey CD73 protein expressed on cells in a dose-dependent manner.

[2] = biological target: T2, recombinant human CD73 protein (human, UniProt P21589 27-547); test: cell-based or functional assay
T2 sequence (looked up): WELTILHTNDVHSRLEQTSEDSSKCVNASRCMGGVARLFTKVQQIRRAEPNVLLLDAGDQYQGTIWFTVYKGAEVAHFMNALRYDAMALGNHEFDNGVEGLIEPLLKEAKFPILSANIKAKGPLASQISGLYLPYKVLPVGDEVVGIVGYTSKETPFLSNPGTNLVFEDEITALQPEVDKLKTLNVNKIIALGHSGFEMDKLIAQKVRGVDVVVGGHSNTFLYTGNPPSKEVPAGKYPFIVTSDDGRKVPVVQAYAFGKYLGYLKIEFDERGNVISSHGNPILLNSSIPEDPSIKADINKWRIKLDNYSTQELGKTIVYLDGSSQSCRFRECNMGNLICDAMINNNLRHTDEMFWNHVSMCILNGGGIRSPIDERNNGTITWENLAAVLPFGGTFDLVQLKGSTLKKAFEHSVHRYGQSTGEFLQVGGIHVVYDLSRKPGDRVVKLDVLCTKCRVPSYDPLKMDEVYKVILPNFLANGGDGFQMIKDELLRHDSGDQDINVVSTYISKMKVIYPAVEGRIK

[3] = biological target: T3, cynomolgus monkey CD73 protein (cynomolgus monkey, UniProt A0A2K5V5U7 27-547); test: BLI (Fortebio), cynomolgus CD73 on HIS1K biosensors, antibody as analyte
T3 construct: construct not described
T3 sequence: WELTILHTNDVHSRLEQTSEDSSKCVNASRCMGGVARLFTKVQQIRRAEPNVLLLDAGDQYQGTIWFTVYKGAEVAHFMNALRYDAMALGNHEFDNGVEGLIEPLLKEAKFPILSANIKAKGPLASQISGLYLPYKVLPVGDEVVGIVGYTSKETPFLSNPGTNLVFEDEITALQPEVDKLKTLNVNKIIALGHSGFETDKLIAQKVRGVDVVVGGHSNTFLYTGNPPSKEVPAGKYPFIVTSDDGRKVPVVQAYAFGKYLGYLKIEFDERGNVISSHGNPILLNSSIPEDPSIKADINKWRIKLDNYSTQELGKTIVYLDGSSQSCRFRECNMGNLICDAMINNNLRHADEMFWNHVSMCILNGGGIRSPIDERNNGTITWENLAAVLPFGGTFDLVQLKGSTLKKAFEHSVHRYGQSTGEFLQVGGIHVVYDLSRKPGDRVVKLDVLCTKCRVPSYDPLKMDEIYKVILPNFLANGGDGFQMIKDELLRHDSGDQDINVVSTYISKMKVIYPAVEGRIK
Protocol: In this example, the cross-binding ability of the exemplary humanized anti-CD73 antibodies of the present application to cynomolgus monkey CD73 was assayed by a Fortebio experiment. The specific implementation steps included immobilizing the cynomolgus monkey CD73 protein onto HIS1K biosensors. […] The times for the ligand-analyte binding and dissociation were 120 s and 300 s, respectively. The data of the antigen-antibody affinity were calculated by regression according to the binding curves using an analysis software.

[4] = biological target: T2, recombinant human CD73 protein; test: ELISA, plate coated with recombinant CD73 protein at 1 µg/mL
Protocol: The affinity of the humanized antibodies to the recombinant CD73 protein was determined using an ELISA method. A elisa plate was coated with the CD73 protein at a concentration of 1 μg/mL. 5-fold gradient dilutions (0-66.7 nM) of the test antibodies were added.

[5] = biological target: T4, C-terminal portion of the CD73 protein (Homo sapiens (Human), UniProt P21589 337-549); test: ELISA, plate coated with CD73 C-terminal protein at 1 µg/mL
T4 construct: also called CD73 C-terminal protein; C-terminus of the CD73 protein
T4 sequence: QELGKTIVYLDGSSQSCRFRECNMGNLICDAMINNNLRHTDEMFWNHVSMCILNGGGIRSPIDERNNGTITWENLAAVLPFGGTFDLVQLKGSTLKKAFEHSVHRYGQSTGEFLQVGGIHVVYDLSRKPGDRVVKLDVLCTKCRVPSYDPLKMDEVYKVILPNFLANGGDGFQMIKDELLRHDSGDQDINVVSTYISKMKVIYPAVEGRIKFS
Protocol: In this example, the C-terminal portion (SEQ ID NO. 41) and the N-terminal portion (SEQ ID NO. 42) of the CD73 protein were separately constructed, and the epitopes recognized by the antibodies were detected by ELISA method. Elisa plates were respectively coated with the CD73 N-terminal and C-terminal proteins at a concentration of 1 μg/mL. The test antibodies were diluted in a gradient.

B1: Hab7C3C2.5 (antibody, human IgG1, kappa, L234A L235A, V domains shown)
VH: QVQLVQSGAEVKKPGASVKVSCKASGYTFTSYDINWVRQATGQGLEWIGWIYPRDGFTKYNEKFKGRVTLTVNTSISTAYMELSSLRSEDTAVYYCARKEGYRGDWYFDVWGQGTTVTVSS
VL: DIQMTQSPSSLSASVGDRVTITCRASGNVHNYLAWYQQKPGKAPKLLLYNAKTLASGVPSRFSGSGSGTDYTLTISSLQPEDFATYYCQHFWSTPWTFGGGTELEIKR
notes: Humanized 7C3C2; also called Hab7C3C.5
EC50 [1]: 11.3 nM
Protein enzymatic activity inhibition IC50 [2]: 0.018 nM
Kd [3]: 0.732 nM
koff [3]: 0.00299 s⁻¹
kon [3]: 4.08e+06 M⁻¹ s⁻¹
EC50 [4]: 0.013 nM
binding result [5]: no binding

B2: Hab1F2F9.15 (antibody, human IgG1, kappa, L234A L235A, V domains shown)
VH: QVQLVQSGAEVKKPGASVKVSCKASGYTFTSYWMHWVRQAPGQRLEWMGNINPSNGGTKYSQKFQGRVTITVDTSASTAYMELSSLRSEDTAVYYCARRDYGSPSYWGQGTTVTVSS
VL: DIQMTQSPSSLSASVGDRVTITCKASQDINSYLTWFQQKPGKAPKSLIYRTNILLDGVPSRFSGSGSGTDYTLTISSLQPEDFATYYCLQYHEFPVTFGGGTKLEIKR
notes: Humanized 1F2F9; also called Huab1F2F9.15; HuablF2F9.15
EC50 [1]: 1.51 nM
Protein enzymatic activity inhibition IC50 [2]: 0.011 nM
Kd [3]: 0.814 nM
koff [3]: 0.0017 s⁻¹
kon [3]: 2.09e+06 M⁻¹ s⁻¹
EC50 [4]: 0.011 nM
binding result [5]: no binding
